Results published in patent US20240181007A1, “COMPOSITIONS AND METHODS FOR TREATING PULMONARY HYPERTENSION” (Acceleron Pharma Inc., priority 2021, published 2024).
One block for each substance: values may come before it.

What was measured:
[1] = molecular target: T1, activin A (UniProt P08476 311-426); experiment: cell-based or functional assay
T1 construct: Soluble ligand injected in SPR or added in the reporter assay
T1 sequence (looked up): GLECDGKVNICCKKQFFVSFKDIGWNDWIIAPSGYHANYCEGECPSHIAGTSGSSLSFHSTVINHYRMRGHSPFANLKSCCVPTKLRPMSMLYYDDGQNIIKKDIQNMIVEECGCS

[2] = molecular target: T2, GDF11 (UniProt O95390 299-407); experiment: cell-based or functional assay
T2 construct: also called Growth and differentiation factor-11; BMP11
T2 sequence (looked up): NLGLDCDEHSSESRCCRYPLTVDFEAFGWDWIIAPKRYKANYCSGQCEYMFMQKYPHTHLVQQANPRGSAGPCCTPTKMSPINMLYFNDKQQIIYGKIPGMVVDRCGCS

[3] = molecular target: T3, BMP9 (UniProt Q9UK05 320-429); experiment: cell-based or functional assay
T3 sequence (looked up): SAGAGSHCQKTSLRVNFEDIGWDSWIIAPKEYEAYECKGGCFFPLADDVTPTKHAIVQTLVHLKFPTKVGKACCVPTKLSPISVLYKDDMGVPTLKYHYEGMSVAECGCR

[4] = molecular target: T4, Activin A (Homo sapiens, UniProt P08476); experiment: Biacore-based binding assay (surface plasmon resonance), activin A; details: 37° C., capture by anti-Fc antibody
T4 sequence (P08476 311-426): T1 sequence (looked up)
Procedure: (§1) To determine ligand binding profiles of variant ActRIIB-Fc homodimers, a Biacore™-based binding assay was used to compare ligand binding kinetics of certain variant ActRIIB-Fc polypeptides. ActRIIB-Fc polypeptides to be tested were independently captured onto the system using an anti-Fc antibody. Ligands were then injected and allowed to flow over the captured receptor protein. ActRIIB-G1Fc was used as the control polypeptide.
as §1, with “protein.” for “protein. ActRIIB-G1Fc was used as the control polypeptide.”
(§2) A Biacore™-based binding assay was used to compare the ligand binding kinetics of an ActRIIB-Fc:ActRIIB(L79E)-Fc heterodimer with those of unmodified ActRIIB-Fc homodimer. Fusion proteins were captured onto the system using an anti-Fc antibody. Ligands were then injected and allowed to flow over the captured receptor protein at 37° C. Results are summarized in the table below, in which ligand off-rates (kd) most indicative of effective ligand traps are denoted in bold.

[5] = molecular target: T5, Activin B (Homo sapiens, UniProt P09529); experiment: Biacore-based binding assay (surface plasmon resonance), activin B; details: 37° C., capture by anti-Fc antibody
T5 sequence (P09529 293-407): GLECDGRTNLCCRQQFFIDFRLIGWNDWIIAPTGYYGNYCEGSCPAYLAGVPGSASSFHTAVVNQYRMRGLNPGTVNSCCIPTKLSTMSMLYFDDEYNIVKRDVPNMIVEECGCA
Procedure: as §1, §2

[6] = molecular target: T6, GDF3 (Homo sapiens, UniProt Q9NR23); experiment: Biacore-based binding assay (surface plasmon resonance), GDF3; details: 37° C., capture by anti-Fc antibody
T6 sequence (Q9NR23 251-364): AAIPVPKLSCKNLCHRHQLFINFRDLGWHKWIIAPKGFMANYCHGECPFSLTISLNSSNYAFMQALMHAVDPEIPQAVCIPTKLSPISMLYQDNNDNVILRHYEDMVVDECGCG
Procedure: as §2

[7] = molecular target: T7, GDF8 (Homo sapiens, UniProt O14793); experiment: Biacore-based binding assay (surface plasmon resonance), GDF8; details: 37° C., capture by anti-Fc antibody
T7 sequence (O14793 267-375): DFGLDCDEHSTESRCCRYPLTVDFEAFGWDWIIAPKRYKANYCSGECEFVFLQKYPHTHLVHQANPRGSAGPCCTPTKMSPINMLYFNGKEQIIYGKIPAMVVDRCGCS
Procedure: as §1, §2

[8] = molecular target: T8, GDF11 (Homo sapiens, UniProt O95390); experiment: Biacore-based binding assay (surface plasmon resonance), GDF11; details: 37° C., capture by anti-Fc antibody
T8 sequence (O95390 299-407): T2 sequence (looked up)
Procedure: as §1
as §1, with “protein.” for “protein. ActRIIB-G1Fc was used as the control polypeptide.”
as §2

[9] = molecular target: T9, BMP6 (Homo sapiens, UniProt P22004); experiment: Biacore-based binding assay (surface plasmon resonance), BMP6; details: 37° C., capture by anti-Fc antibody
T9 sequence (P22004 375-513): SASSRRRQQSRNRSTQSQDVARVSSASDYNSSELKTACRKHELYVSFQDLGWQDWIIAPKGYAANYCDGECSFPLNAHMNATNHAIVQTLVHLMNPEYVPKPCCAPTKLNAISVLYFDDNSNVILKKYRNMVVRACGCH
Procedure: as §2

[10] = molecular target: T10, BMP9 (Homo sapiens, UniProt Q9UK05); experiment: Biacore-based binding assay (surface plasmon resonance), BMP9; details: 37° C., capture by anti-Fc antibody; Transient*: indeterminate due to transient nature of interaction
T10 sequence (Q9UK05 320-429): T3 sequence (looked up)
Procedure: as §1
as §1, with “protein.” for “protein. ActRIIB-G1Fc was used as the control polypeptide.”
as §2

[11] = molecular target: T11, BMP10 (Homo sapiens, UniProt O95393); experiment: Biacore-based binding assay (surface plasmon resonance), BMP10; details: 37° C., capture by anti-Fc antibody
T11 sequence (O95393 317-424): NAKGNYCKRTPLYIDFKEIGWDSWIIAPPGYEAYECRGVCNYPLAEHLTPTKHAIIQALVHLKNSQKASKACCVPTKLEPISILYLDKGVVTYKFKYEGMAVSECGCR
Procedure: as §1, §2

Substance: E50K (homodimeric ActRIIB-Fc construct) (Fc fusion)
- IC50 (ng/ml), A204 CAGA12 luciferase reporter assay [1]: 132 ng/mL
- IC50 (ng/ml), A204 CAGA12 luciferase reporter assay [2]: 180 ng/mL
- IC50 (ng/ml), A204 CAGA12 luciferase reporter assay [3]: 721 ng/mL

Substance: E50P (homodimeric ActRIIB-Fc construct) (Fc fusion)
- IC50 (ng/ml), A204 CAGA12 luciferase reporter assay [1]: 756 ng/mL
- IC50 (ng/ml), A204 CAGA12 luciferase reporter assay [2]: 638 ng/mL
- IC50 (ng/ml), A204 CAGA12 luciferase reporter assay [3]: 3000 ng/mL

Substance: E52A (homodimeric ActRIIB-Fc construct) (Fc fusion)
- IC50 (ng/ml), A204 CAGA12 luciferase reporter assay [1]: 198 ng/mL
- IC50 (ng/ml), A204 CAGA12 luciferase reporter assay [2]: 71 ng/mL
- IC50 (ng/ml), A204 CAGA12 luciferase reporter assay [3]: 359 ng/mL

Next, values leading:

- IC50 (ng/ml), A204 CAGA12 luciferase reporter assay [1]: 128 ng/mL
- IC50 (ng/ml), A204 CAGA12 luciferase reporter assay [2]: 99 ng/mL
- IC50 (ng/ml), A204 CAGA12 luciferase reporter assay [3]: 409 ng/mL
Substance: A24N (homodimeric ActRIIB-Fc construct) (Fc fusion)

- ka Activin A [4]: 7.4e+06 M⁻¹ s⁻¹
- kd Activin A [4]: 0.00019 s⁻¹
- ka Activin B [5]: 8.1e+06 M⁻¹ s⁻¹
- kd Activin B [5]: 6.6e-05 s⁻¹
- ka GDF3 [6]: 1.4e+06 M⁻¹ s⁻¹
- kd GDF3 [6]: 0.0022 s⁻¹
- ka GDF8 [7]: 3.8e+06 M⁻¹ s⁻¹
- kd GDF8 [7]: 0.00026 s⁻¹
- ka GDF11 [8]: 4.1e+07 M⁻¹ s⁻¹
- kd GDF11 [8]: 0.00017 s⁻¹
- ka BMP6 [9]: 1.3e+08 M⁻¹ s⁻¹
- kd BMP6 [9]: 0.0074 s⁻¹
- ka BMP9 [10]: 5e+06 M⁻¹ s⁻¹
- kd BMP9 [10]: 0.0013 s⁻¹
- ka BMP10 [11]: 5.1e+07 M⁻¹ s⁻¹
- kd BMP10 [11]: 0.0002 s⁻¹
Substance: ActRIIB-Fc homodimer: unmodified ActRIIB-Fc homodimer, comparator of the heterodimer in Table 6

- IC50 (ng/ml), A204 CAGA12 luciferase reporter assay [1]: 762 ng/mL
- IC50 (ng/ml), A204 CAGA12 luciferase reporter assay [2]: 296 ng/mL
- IC50 (ng/ml), A204 CAGA12 luciferase reporter assay [3]: 10000 ng/mL
Substance: E52K (homodimeric ActRIIB-Fc construct) (Fc fusion)
